# According to a protein production outcome set (Wang et al. 2014):
# Experiment: label from the status in PepcDB records
row,Sequence,protein production
1,MRLTVWTYEGPPQVGAMRVATAMRGVHYVVHAPQGDSYADLLFTMIERRPGRPAVSYTSFQARDLGTDTAALFKTAAADAVARFQPEALLVGSSCTGELIQDDPGGLAKALGLSIPVIPLELPSYQRKENWGAAETFYRLVRTMAGPAAPAPGTPRAPRPAGQRPRCNLLGPTALGFRHRDDVQAVVALLGRMGVDVAVVAPLGASPADLARLGEADFNVVLYPEIADTAVRWLERAFGQPSVRTVPIGVGATRAFIAEVAAVAGVDPAPALAEESLRLPWWSRSVDSTYLTGKRVFIFGDATHAVAAARVATEEFGFEVVGLGTYAREYARELRACAGALGLEALITDDYLDVEAAIADAHPDLVLGTQMERHIAKRLGVPCAVISAPVHVQDFPARTAPQMGFDGANVLFDTWVHPLMMGLEEHLLMMFRDDFEFHGDAAPSHLSAHRPTGEAVGDAVGEPPAAPRDQAAPAATLDGSAAQSDPARTTPPGAPSWEDSAEKELRKVPFFVRGKARRNTERFAAERGLASISVETLYDAKAHFGR,failed
2,SSSSCTVTTGTLGFGDKFKRPIGSWECSVCCVSNNAEDNKCVSCMSEKPG,not failed
3,MKLAMKLRTRLFLSISALITVALLGLLLGLVSVMQMARTQESLIQHNFAILDLGLKLRQNLGDQLVLMTGATRNPPELEKIQRQFEELLEEASAQDTQEDVRNGLEGTWVDYRRFIDALKQFGTDPRGIRGNPQLSESFDSLRNGLLNVHRKALENISSAEINSRDRALWIAGLLGLVGLAVLCIGFVTAHGIARRFGAPIEALAKAADRIGEGDYEVTLPISSAAEMNLLTRRFGIMAEALRQHQATNVDELLAGQQRLQAVLDSIDDGLLMIDRQGHLEHLNPVAQRQLGWDESRLGQSLGEALSRPELDEQLHLVLRGGTLERAPEDLAIDIDGESRLLTYSMTPVSHTKGHILGAVMVLHDVTEQRAFERVRSEFVLRASHELRTPVTGMHMAFGLLQERLHFAPESREADLLNTVTEEMQRLMQLINDLLNFSRYQNGLQKLKLAPCSIETLLEEARARYEGQAQEQEIVLMLDIQEPMPRLHADQSQLERVLDNLLDNALRHTPPNGLIRLQARRHGERAIISVEDNGEGIAYGQQGRIFEPFVQVGRKKGGAGLGLALCKEIVQLHGGRMGVYSRPGQGTQFYMALLL,failed
4,MSTAGLFSIFLIGIASNLDNAGVGIAYGIRKIRISWFNNFIIAFFGFLFTLLAGFFGNWIALFISEFTANLIGAIVLGIIGVFILCQPFLGQRNTVGSKDGNVLMGILRDPEKADFDGSKTISFSEAIVLGIALSINNIAGGFDAGITNLNLWLTATISGVFSFICISGFAYVGKRFLAEYLGKWATIIAEVLLILIGIDQLL,failed
5,MKVSVEIITGTFIDTDVSEDATVKQMKEKIAVEVKLPVTRLILVIGDEETRRLVMEDEDDMMLRDLGVGEDSHIYLFFKHPDLVSKEERSKGEDDDDPMEEVSSEAESGRGNEEEVEKAKIDGEEEDQAMKDEEEDRDVKVEEDEEEKEKEKDGEAKYVKEEAREVEEADNKQEN,failed
6,MEDLSDVFDIYAICACCKVAPTSEGTKNEPFSPRTFRGLGNKGTLPWKCNSVDMKYFRSVTTYVDESKYEKLKWKRERYLRMEASQGGGDNTSGGDNNADKLQNVVVMGRSNWESIPKQYKPLPNRINVVLSKTLTKEDVKEKVFIIDSIDDLLLLLKKLKYYKCFIIGGAQVYRECLSRNLIKQIYFTRINGAYPCDVFFPEFDESQFRVTSVSEVYNSKGTTLDFLVYSK,not failed
7,MKYLAGIVTFNPNIERLDQNIRAIYPQVSHIYIVDNGSKNKEEISQLVADYNEEGHLTVDYLTENKGIAYALNCIGQFAVAQEFDWFLTLDQDSVVLGDLIDNYENYLHLPKVGMLSCLYQDMNRENLVMQEFDYKEIEECITSAALMKTSVFEETSGFAEEMFIDFVDSEMNYRLSEMGYKTYQVNFIGLLHEIGHSSRVKKFGHVFHVLNHSPFRKYYMIRNAIYIIKKYGKKKRYKYLVFMRNEFVRVLVAEEQKSKKIVAMIKGLKDGLLMKVDKYGKLEHHHHHH,not failed
8,MAKGPLVSFQALVENARDLVYVLDAGGAIRYASPNVRQVLGYDPEGHTRETLYALDFVHPEDRTYAEAALEDLLRHPGKTREFRLRLLDAWGRVRAVRVWGRNLLEDPAVRGIIINVHDETELEAERA,failed
9,MTAQIRLAEPADLNDDTLRARAVAAARGDQRFDVLITGGTLVDVVTGELRPADIGIVGALIASVHEPASRRDAAQVIDAGGAYVSPGLIDTHMHIESSMITPAAYAAAVVARGVTTIVWDPHEFGNVHGVDGVRWAAKAIENLPLRAILLAPSCVPSAPGLERGGADFDAAILADLLSWPEIGGIAEIMNMRGVIERDPRMSGIVQAGLAAEKLVCGHARGLKNADLNAFMAAGVSSDHELVSGEDLMAKLRAGLTIELRGSHDHLLPEFVAALNTLGHLPQTVTLCTDDVFPDDLLQGGGLDDVVRRLVRYGLKPEWALRAATLNAAQRLGRSDLGLIAAGRRADIVVFEDLNGFSARHVLASGRAVAEGGRMLVDIPTCDTTVLKGSMKLPLRMANDFLVKSQGAKVRLATIDRPRFTQWGETEADVKDGFVVPPEGATMISVTHRHGMAEPTTKTGFLTGWGRWNGAFATTVSHDSHNLTVFGGNAGDMALAANAVIGTGGGMAVASEGKVTAILPLPLSGLVSDAPLEEVARAFEDLREAVGKVVEWQPPYLVFKACFGATLACNIGPHQTDMGIADVLTGKVMESPVIEVLG,failed
10,MGFLDALMGNASEVDLGKLAAELSPILGDNEELQLAYKMVRDLFVFTSKRLILIDKQGVTGKKVSYHSIPYKAIVHFQVETAGTFDMDAELKLWISGQHEPLVKELKRGTDVVGIQKTIARYALG,not failed
11,MEYSRDSAEMMMETKRNVYSLEDNKIKRHKSSDLSFSSKERKDKLAERISALQQLVSPYGKTDTASVLLEGMQYIQFLQEQVKVLSAPYLQATPSTTEEEVEEYSLRSKGLCLVPLEYTSEVAQTNGADIWAPVKTPTSSHAFNLSSSNSPFQ,failed
12,MDSLMTLLSVLIPMFAGFFIRVPKPYLPALDKVLSVLVYAVLLLIGVSLSRVEDLGSRLDDMALTVLWLFVCTVGANLLALAVLGKLFP,failed
13,MFESLGFEETTAKEISVLLGLSLGVLFGLLAERTRFCFRRAVVGEDARQAAGVWFTALAVAILGTQASVASGLIGFADHRLLSSDLPVLAVVLGGLMFGAGMVLTRGCISRLTVLGGTGNLRALTVLLVFAVVAHAMLKGVLAPLRTSLGAVTVDLGETVSLAALPGGAALWTALLALASLLIAARSGNRALPLLGAALIGLLVPLGWVGTGYVLFDEFDPITMESLSFTAPAADTLFYTIASTSIAPGFGTGLVGGVLLGALAAALLFGSFRWQSFDSPRQTGRYLAGATLMGMGGVLAGGCTLGAGLAGIPTLSLAALLALTAIALGARLTDAALNAASSGSAGYPATPGQQPAE,failed
14,MSRILVLAVVALALLNPLFLVVHSLPTGVSAHDGPIYTNAVLGYANITSLQAYNSSFNVPYGASLQLNVVLEATSTNGNTYYFWLQNVAQFVTNESLMCFTDNVWNYTTATAEISNVTGNGGIGFTYNILFGHPTFYGYSTEPMPYRFPLALYLLINESLSSNGVIVNFIYVVLQNGSLVPPHPVTYDSVFIPVPDPQSAYIIVNDSLTPSAVVLNFTLFYQEALGNLMDTELVWGGYENGEFTTFTQMSSYLGLFYLSGNSFVPFSTVYTYGNDTAESTGDLYVSIASNGDAYVTVGTPDYGLLTDSFHPYIPGFTFVNVTSKVPFLVNGTYTNSFVGYVVHPVTITFYRNYTVNSSSYAVLDYPSQSLTITPSNTFKNVIITPQYTYYYKVIVNSSRPLLLNISGKETLTNGTLWLPQGTSVSLVNNTYYVSSGERFVVNNTYPNLPLTVENPTTITVTLEKQFKLTINSPIPLLLSINGKSRLFNGTTWVLQGSAVELVNNTYYVSSGERYVVSSISPSTPIEVSGPMNISVELVKEYKVEIVSSQPVMATIKGETEPVNGTAWLPQGSVIHLTANLPVYLKGYFVGTYNASPGEQVTINGPIYEKLVVQLNYTFLEELVIPIVTAVVIVVAITRRR,failed
15,MSLIENLWRGICIISASEDAFSAGETIKEKLKSFEIPVVHYRYKDAEIETIWKCYDAIVFVMALEGATRIVCKYAKSKTEDPAIVCIDDKINYVIPLLGGHWGANDIARELSVILNSTPIITTAAEIKGKLSIERIANILIAKIINPENIVKINAALLRDESICIDGIDVNVNFPENIKVNSEECSYIISLRGDKEYKDKIVVWLKPLKISIGIGSKKDVKMEEIRDGIYKVLERLNLKRERIGIIASIREEVKKIADEFNVRFRLVNEEEINNFMNPCLTPPSKTLIEVGLKGVAEISALIAGGRNSKLILRKIAISRNSTIAVATYEGHHHHHH,not failed
16,MAHGIPSQGKVTITVDEYSSNPTQAFTHYNINQSRFQPPHVHMVDPIPYDTPKPAGHTRFVCISDTHSRTDGIQMPYGDILLHTGDFTELGLPSEVKKFNDWLGNLPYEYKIVIAGNHELTFDKEFMADLVKQDYYRFPSVSKLKPEDFDNVQSLLTNSIYLQDSEVTVKGFRIYGAPWTPWFNGWGFNLPRGQSLLDKWNLIPEGIDILMTHGPPLGFRDWVPKELQRVGCVELLNTVQRRVRPKLHVFGGIHEGYGIMTDGYTTYINASTCTVSFQPTNPPIIFDLPNPQGS,failed
17,MLEGESAPEPVIEISKLELTDYVKCNLPPEVIKYYESELELLTQEIKSEKKNPAFAYCRRGAIYRKLGKLQSAMNDLQETIFVEPLFLNAYWHRHFIYLFQDKINDALDDLNFITKYNKNHAEAYLSKAEIFREKNDITLAILNYSQAIKCRPKDASLYFKRGEMYEKTNKVLAIDDFSKGLDQAVTHVTESAQIFPPLLGQNDCIYYDPKRSDALWKRGMFYFENENWTGAVYDFTSLLKLEPHNSQARTNRGRAYFKRNLFKQATEDFSAAIHSDPNNWLALYYRACLFRKCSPQRALQDYSVSVSVSVLCSPGFKLFIYKVNGMSEFTTSFHEFVNCDCHVLINDGYDNLNCFLHRGILYTELKFWMLAVCDFETVVTLERIKAIISSRGQYLLMMKSYDLAKLTIFQVAEMNKGVIELSPIQEALIYSFCENHDKAIHVLEGVIANKPDISTYALLAKAQMKAKRIKESVRLFKKALELYTFSDKGPAATSVSADCLYNLGLCYMEEGNFQMNYKLAITDLTTAVGMDKNSYTAFYNRALCYTKIKKHEMALRDYGIVLLLQAGETIALNTLVNRGLIYTELEQYGFALEDFKEASMISETSVKLCQATAMCHHRIKEFQGAVEFFTRAIKINPRYLDAYIGRGNSYMEYEQNKAMIQAQKDFLRALHLDPSNLKARISLGYNLQAQGKFQKAWQHFTIGIEANPKNYLAYEGRAVVCLQMSNYFAAMQDINCAIKINSTAEFLTNRGVIHEFMGQQQNAMADYQAAISLDPNYSLAYFNAGNIYLHHRQFSQATDYFSTALKLNPENECALMNRAVTNSVLKKYEEAEKDFSHAMELCPHWAALYFNRASFYVYLKKYELAEEDLDRALSLKPDDAIMYNLRAQVRGKIGLIEEAMCDYNQALDLEEYSKAM,failed
18,MNSTAIVLLNWRSAKDTVKCVESLIAAEIRQCDIIIVDNDSQDESINVIKEHFTDVRVIESGKNGGFAYGCNVGIRAALSSGYNYVWLLNNDTIVDKTTLPNMIEEIKRNKKAIVGSIIRDIEFPWSVQAVGGGTINFLTGTGRHIKTFDDVDKLDYLLGASILVSREALESIGLLNEDFFMYWEDTEFCIRARRKGYFLKVAKQSNVYHKEGGSVNKESYAQTRMIFRSMRKFFLKESPFPLLPIAIRQLGKTFVSLLRREFRRIPYIWL,failed
19,MALKATIYKADLNIANMDSHHYADYQLTLALHPSETIERLMVRILAFARFADENLQFTKDLFETDEPALWQKDLTGQLEQWIELGQPSEDKLKKASARCKHVVVVTYGQQVDEWWKRNNKVKTLSNVEVWQLAPETTSQLEKLCERTMQLQLNVMDGEWTLLNDHEQVDVSWTKLH,failed
